The source of these data is article PMC4433220.

Data set [1] has as its target T1, Dps (Escherichia coli, UniProt P0ABT2 1-167). The data set can be described thus: EMSA; 2-fold Dps excess: triplex significantly reduced; EMSA: 50 mM Tris-HCl pH 7.5, 0.1 mM EDTA, 50 mM NaCl, 37°C 30 min; footprinting: 50 mM Tris-HCl pH 8.0, 0.1 mM EDTA, 0.1 mM DTT, 10 mM MgCl2, 50 mM NaCl, 5 mg/m. A general note: Mobility shift assays separate free from complexed probe on a gel.

The target of data set [2] is T1, Dps. The data set can be described thus: AFM; bound protein slightly shifted from center; EMSA: 50 mM Tris-HCl pH 7.5, 0.1 mM EDTA, 50 mM NaCl, 37°C 30 min; footprinting: 50 mM Tris-HCl pH 8.0, 0.1 mM EDTA, 0.1 mM DTT, 10 mM MgCl2, 50 mM NaCl, 5 mg/m.

B1: Y5_Y6_Y7 (structured_DNA)
DNA 1: CTTTTCCTCTACACCGTCTTTATATATCGAATTAAGAAGTCGCAATGAGTATTACTTTGTAAAT
DNA 2: CAAGGGTAAACGAACCTTGCGCTTTCTTAAATATTCGATATATAAAGACGGTGTAGAGGAAAAG
DNA 3: ATTTACAAAGTAATACTCATTGCGACTTCTTAATTTAAGAAAGCGCAAGGTTCGTTTACCCTTG
As for B1, the binding result with Dps [1] is “binds”.

B2: Y5_Y6_Y8 (structured_DNA)
DNA 1: CTTTTCCTCTACACCGTCTTTATATATCGAATTAAGAAGTCGCAATGAGTATTACTTTGTAAAT
DNA 2: CAAGGGTAAACGAACCTTGCGCTTTCTTAAATATTCGATATATAAAGACGGTGTAGAGGAAAAG
DNA 3: ATTTACAAAGTAATACTCATTGCGACTTCTTAATTTAAGAAAGCGCAAGGAACGTTTACCCTTG
In the case of B2, in the data set with Dps [2], the binding result is given as “binds”.
